Test results taken from patent publication US20220098304A1 (JIANGSU HENGRUI MEDICINE, published 2022).

Target: T1, Human PD-1-His protein (Cat. #10377H08H, Sino Biological) (human, UniProt Q15116 25-167)
T1 construct: Bought protein; also called hPD-1-His; hu PD-1-his; not shown: His tag of the bought protein
Assay: SPR (Biacore), antibody captured on Protein A chip, PD-1 in flow
Text: IgG was affinity captured by using a Protein A biosensor chip (Cat. #29127556, GE). Human PD-1 antigen (Cat. #10377H08H, Sino Biological) and Cyno PD-1 antigen (purchased from Sino Biological) flowed across the surface of the chip, and the binding and dissociation curves were obtained by real time detection of PD-1 antibody and antigen PD-1 reaction signals by a Biacore T200 instrument. After the dissociation of each experimental cycle was completed, the biosensor chip was washed and regenerated with 10 mM Glycine-HCl pH 1.5 buffer. The experimental buffer system was 1×HBS-EP buffer solution (Cat #BR-1001-88, GE). After the experiment, GE Biacore T200 Evaluation version 3.0 software was used to fit the data with a (1:1) Langmuir model, and the affinity value was obtained.

T1 sequence (Q15116 25-167 limits assumed): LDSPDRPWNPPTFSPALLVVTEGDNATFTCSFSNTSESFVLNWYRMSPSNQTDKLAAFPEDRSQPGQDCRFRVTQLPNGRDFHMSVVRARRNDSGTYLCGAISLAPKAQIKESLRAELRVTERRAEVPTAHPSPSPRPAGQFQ

Row | Binder | Kd [nM] | koff [s⁻¹] | kon [M⁻¹ s⁻¹]
1 | Hu23-1.IgG4AA (antibody, Full-length IgG4-AA (S228P, F234A, L235A), kappa) heavy: not shown light: DIVMTQTPLSLPVTPGEPASISCRSSQSLVHSNGNTYLEWYLQKPGQSPQLLIYKVSNRFSGVPDRFSGSGSGTDFTLKISRVEAEDVGVYYCFQGSHVPYTFGGGTKVEIKRTVAAPSVFIFPPSDEQLKSGTASVVCLLNNFYPREAKVQWKVDNALQSGNSQESVTEQDSKDSTYSLSSTLTLSKADYEKHKVYACEVTHQGLSSPVTKSFNRGEC | 3.2 | 0.00011 | 34300
2 | Hu23-4.IgG4AA (antibody, Full-length IgG4-AA, kappa) heavy: not shown light: DIVMTQTPLSLPVTPGEPASISCRSSQSLVHSNGNTYLEWYLQKPGQSPQLLIYKVSNRFSGVPDRFSGSGSGTDFTLKISRVEAEDVGVYYCFQGSHVPYTFGGGTKVEIKRTVAAPSVFIFPPSDEQLKSGTASVVCLLNNFYPREAKVQWKVDNALQSGNSQESVTEQDSKDSTYSLSSTLTLSKADYEKHKVYACEVTHQGLSSPVTKSFNRGEC | 3.39 | 0.000144 | 42400
3 | Hu23-6.IgG4AA (antibody, Full-length IgG4-AA, kappa) heavy: not shown light: DGVMTQTPLSLPVTPGEPASISCRSSQSLVHSNGNTYLEWYLQKPGQSPQLLIYKVSNRFSGVPDRFSGSGSGTDFTLKISRVEAEDVGVYYCFQGSHVPYTFGGGTKVEIKRTVAAPSVFIFPPSDEQLKSGTASVVCLLNNFYPREAKVQWKVDNALQSGNSQESVTEQDSKDSTYSLSSTLTLSKADYEKHKVYACEVTHQGLSSPVTKSFNRGEC | 5.57 | 0.000155 | 27900
4 | Hu23-8.IgG4AA (antibody, Full-length IgG4-AA, kappa) heavy: not shown light: DGVMTQTPLSLPVTPGEPASISCRSSQSLVHSNGNTYLEWYLQKPGQSPQLLIYKVSNRFSGVPDRFSGSGSGTDFTLKISRVEAEDVGVYYCFQGSHVPYTFGGGTKVEIKRTVAAPSVFIFPPSDEQLKSGTASVVCLLNNFYPREAKVQWKVDNALQSGNSQESVTEQDSKDSTYSLSSTLTLSKADYEKHKVYACEVTHQGLSSPVTKSFNRGEC | 3.56 | 0.000147 | 41100
5 | Hu23-9.IgG4AA (antibody, V domains shown, Full-length IgG4-AA, kappa; also called Hu23LCDR1 (N28Q)) VH: EVQLVQSGAEVKKPGSSVKVSCKASGGTFSDYEMHWVRQAPGQGLEWMGLIDPETGGTVYNQKFKDRVTITADKSTSTAYMELSSLRSEDTAVYYCARERFSYYGSTSDWYFDVWGQGTTVTVSS VL: DIVMTQTPLSLPVTPGEPASISCRSSQSLVHSQGNTYLEWYLQKPGQSPQLLIYKVSNRFSGVPDRFSGSGSGTDFTLKISRVEAEDVGVYYCFQGSHVPYTFGGGTKVEIKR | 2.15 | 0.000132 | 61600
6 | Hu23-3.IgG4AA (antibody, Full-length IgG4-AA, kappa) heavy: not shown light: DIVMTQTPLSLPVTPGEPASISCRSSQSLVHSNGNTYLEWYLQKPGQSPQLLIYKVSNRFSGVPDRFSGSGSGTDFTLKISRVEAEDVGVYYCFQGSHVPYTFGGGTKVEIKRTVAAPSVFIFPPSDEQLKSGTASVVCLLNNFYPREAKVQWKVDNALQSGNSQESVTEQDSKDSTYSLSSTLTLSKADYEKHKVYACEVTHQGLSSPVTKSFNRGEC | 5.46 | 0.00016 | 29300
7 | Hu23-12.IgG4AA (antibody, V domains shown, Full-length IgG4-AA, kappa; also called Hu23LCDR1 (N28D)) VH: EVQLVQSGAEVKKPGSSVKVSCKASGGTFSDYEMHWVRQAPGQGLEWMGLIDPETGGTVYNQKFKDRVTITADKSTSTAYMELSSLRSEDTAVYYCARERFSYYGSTSDWYFDVWGQGTTVTVSS VL: DIVMTQTPLSLPVTPGEPASISCRSSQSLVHSDGNTYLEWYLQKPGQSPQLLIYKVSNRFSGVPDRFSGSGSGTDFTLKISRVEAEDVGVYYCFQGSHVPYTFGGGTKVEIKR | 2.02 | 0.00011 | 54500
8 | Hu23-14.IgG4AA (antibody, V domains shown, Full-length IgG4-AA, kappa; also called Hu23LCDR1 (G29V)) VH: EVQLVQSGAEVKKPGSSVKVSCKASGGTFSDYEMHWVRQAPGQGLEWMGLIDPETGGTVYNQKFKDRVTITADKSTSTAYMELSSLRSEDTAVYYCARERFSYYGSTSDWYFDVWGQGTTVTVSS VL: DIVMTQTPLSLPVTPGEPASISCRSSQSLVHSNVNTYLEWYLQKPGQSPQLLIYKVSNRFSGVPDRFSGSGSGTDFTLKISRVEAEDVGVYYCFQGSHVPYTFGGGTKVEIKR | 2.22 | 0.000161 | 72300
9 | Hu23-10.IgG4AA (antibody, V domains shown, Full-length IgG4-AA, kappa; also called Hu23LCDR1 (N28L)) VH: EVQLVQSGAEVKKPGSSVKVSCKASGGTFSDYEMHWVRQAPGQGLEWMGLIDPETGGTVYNQKFKDRVTITADKSTSTAYMELSSLRSEDTAVYYCARERFSYYGSTSDWYFDVWGQGTTVTVSS VL: DIVMTQTPLSLPVTPGEPASISCRSSQSLVHSLGNTYLEWYLQKPGQSPQLLIYKVSNRFSGVPDRFSGSGSGTDFTLKISRVEAEDVGVYYCFQGSHVPYTFGGGTKVEIKR | 2.77 | 0.000153 | 55100
10 | Hu23-5.IgG4AA (antibody, Full-length IgG4-AA, kappa) heavy: not shown light: DGVMTQTPLSLPVTPGEPASISCRSSQSLVHSNGNTYLEWYLQKPGQSPQLLIYKVSNRFSGVPDRFSGSGSGTDFTLKISRVEAEDVGVYYCFQGSHVPYTFGGGTKVEIKRTVAAPSVFIFPPSDEQLKSGTASVVCLLNNFYPREAKVQWKVDNALQSGNSQESVTEQDSKDSTYSLSSTLTLSKADYEKHKVYACEVTHQGLSSPVTKSFNRGEC | 3.82 | 0.000114 | 29900
11 | Hu23-7.IgG4AA (antibody, Full-length IgG4-AA, kappa) heavy: not shown light: DGVMTQTPLSLPVTPGEPASISCRSSQSLVHSNGNTYLEWYLQKPGQSPQLLIYKVSNRFSGVPDRFSGSGSGTDFTLKISRVEAEDVGVYYCFQGSHVPYTFGGGTKVEIKRTVAAPSVFIFPPSDEQLKSGTASVVCLLNNFYPREAKVQWKVDNALQSGNSQESVTEQDSKDSTYSLSSTLTLSKADYEKHKVYACEVTHQGLSSPVTKSFNRGEC | 5.97 | 0.000166 | 27700
12 | Hu23-13.IgG4AA (antibody, V domains shown, Full-length IgG4-AA, kappa; also called Hu23LCDR1 (G29A)) VH: EVQLVQSGAEVKKPGSSVKVSCKASGGTFSDYEMHWVRQAPGQGLEWMGLIDPETGGTVYNQKFKDRVTITADKSTSTAYMELSSLRSEDTAVYYCARERFSYYGSTSDWYFDVWGQGTTVTVSS VL: DIVMTQTPLSLPVTPGEPASISCRSSQSLVHSNANTYLEWYLQKPGQSPQLLIYKVSNRFSGVPDRFSGSGSGTDFTLKISRVEAEDVGVYYCFQGSHVPYTFGGGTKVEIKR | 2.88 | 0.000122 | 42400
13 | Hu23-2.IgG4AA (antibody, Full-length IgG4-AA, kappa) heavy: not shown light: DIVMTQTPLSLPVTPGEPASISCRSSQSLVHSNGNTYLEWYLQKPGQSPQLLIYKVSNRFSGVPDRFSGSGSGTDFTLKISRVEAEDVGVYYCFQGSHVPYTFGGGTKVEIKRTVAAPSVFIFPPSDEQLKSGTASVVCLLNNFYPREAKVQWKVDNALQSGNSQESVTEQDSKDSTYSLSSTLTLSKADYEKHKVYACEVTHQGLSSPVTKSFNRGEC | 5.86 | 0.000161 | 27400
14 | murine antibody M23 (antibody, V domains shown) VH: QVQLQQSGAELVRPGASVTLSCKASGYTFTDYEMHWVKQTPIHGLEWIGLIDPETGGTVYNQKFKDKTILTADKSSSTAYMEFRSLTSEDSAVYHCTRERFSYYGSTSDWYFDVWGTGTTVTVSS VL: DGLMTQTPLSLPVSLGDHASISCRSSQSLVHSNGNTYLEWYLQKPGQSPKLLIYKVSNRFSGVPDRFSGSGSGTDFTLKISRVEAEDLGIYYCFQGSHVPYTFGGGTKLEIK | 2.89 | 0.000132 | 45700
15 | Hu32a-29.IgG4AA (antibody, V domains shown, Full-length IgG4-AA, kappa) VH: EVQLVQSGAEVKKPGSSVKVSCKASGFTFSDYEIHWVRQAPGQGLEWMGLFDPETGGIVYNQKFKGRVTLTADKSTSTAYMELSSLRSEDTAVYYCTREGYNRDWYFDVWGQGTTVTVSS VL: DIVMTQTPLSLPVTPGEPASISCRSSQSLVHSTGNTYLEWYLQKPGQSPQLLIYKVSNRFSGVPDRFSGSGSGTDFTLKISRVEAEDVGVYYCFQGSHVPYTFGGGTKVEIKR | 7.86 | 0.00062 | 78900
16 | Hu32a-71.IgG4AA (antibody, V domains shown, Full-length IgG4-AA, kappa) VH: EVQLVQSGAEVKKPGSSVKVSCKASDFTFTDYEIHWVRQAPGQGLEWIGLFDPETGGIVYNQKFKGRATLTADKSTSTAYMEFSSLRSEDTAVYYCTREGYNRDWYFDVWGQGTTVTVSS VL: DIVMTQTPLSLPVTPGEPASISCRSSQSLVHSTGNTYLEWYLQKPGQSPQLLIYKVSNRFSGVPDRFSGSGSGTDFTLKISRVEAEDVGVYYCFQGSHVPYTFGGGTKVEIKR | 4.61 | 0.000396 | 86000
17 | Hu32a-15.IgG4AA (antibody, V domains shown, Full-length IgG4-AA, kappa) VH: EVQLVQSGAEVKKPGSSVKVSCKASGGTFSDYEIHWVRQAPGQGLEWMGLFDPETGGIVYNQKFKGRVTITADKSTSTAYMELSSLRSEDTAVYYCAREGYNRDWYFDVWGQGTTVTVSS VL: DIVMTQTPLSLPVTPGEPASISCRSSQSLVHSTGNTYLEWYLQKPGQSPQLLIYKVSNRFSGVPDRFSGSGSGTDFTLKISRVEAEDVGVYYCFQGSHVPYTFGGGTKVEIKR | 51.4 | 0.00252 | 48900
18 | Hu32a-57.IgG4AA (antibody, V domains shown, Full-length IgG4-AA, kappa) VH: EVQLVQSGAEVKKPGSSVKVSCKASGFTFSDYEIHWVRQAPGQGLEWIGLFDPETGGIVYNQKFKGRATLTADKSTSTAYMEFSSLRSEDTAVYYCTREGYNRDWYFDVWGQGTTVTVSS VL: DIVMTQTPLSLPVTPGEPASISCRSSQSLVHSTGNTYLEWYLQKPGQSPQLLIYKVSNRFSGVPDRFSGSGSGTDFTLKISRVEAEDVGVYYCFQGSHVPYTFGGGTKVEIKR | 7.85 | 0.000624 | 79400
19 | Hu32a-43.IgG4AA (antibody, V domains shown, Full-length IgG4-AA, kappa) VH: EVQLVQSGAEVKKPGSSVKVSCKASDFTFSDYEIHWVRQAPGQGLEWMGLFDPETGGIVYNQKFKGRVTLTADKSTSTAYMELSSLRSEDTAVYYCTREGYNRDWYFDVWGQGTTVTVSS VL: DIVMTQTPLSLPVTPGEPASISCRSSQSLVHSTGNTYLEWYLQKPGQSPQLLIYKVSNRFSGVPDRFSGSGSGTDFTLKISRVEAEDVGVYYCFQGSHVPYTFGGGTKVEIKR | 8.16 | 0.000685 | 83900
